Measured values as given in paper PMC10514044, “Structural basis of the activation of TRPV5 channels by long-chain acyl-Coenzyme-A” (Nature Communications, 2023).

Target: the molecule itself
Experiment: cryo-EM structure; TRPV5 in lipid nanodiscs (MSP2N2, soy polar lipids), incubated with 400 uM oleoyl-CoA or 400 uM diC8-PI(4,5)P2 for 45 min; 20 mM HEPES pH 8.0, 150 mM NaCl, 2 mM TCEP; C4 symmetry imposed

B1: full-length rabbit TRPV5 (natural protein, UniProt Q9XSM3 1-730, looked up)
chain: MGACPPKAKGPWAQLQKLLISWPVGEQDWEQYRDRVNMLQQERIRDSPLLQAAKENDLRLLKILLLNQSCDFQQRGAVGETALHVAALYDNLEAATLLMEAAPELAKEPALCEPFVGQTALHIAVMNQNLNLVRALLARGASVSARATGAAFRRSPHNLIYYGEHPLSFAACVGSEEIVRLLIEHGADIRAQDSLGNTVLHILILQPNKTFACQMYNLLLSYDEHSDHLQSLELVPNHQGLTPFKLAGVEGNTVMFQHLMQKRKHVQWTCGPLTSTLYDLTEIDSWGEELSFLELVVSSKKREARQILEQTPVKELVSFKWKKYGRPYFCVLASLYILYMICFTTCCIYRPLKLRDDNRTDPRDITILQQKLLQEAYVTHQDNIRLVGELVTVTGAVIILLLEIPDIFRVGASRYFGQTILGGPFHVIIITYASLVLLTMVMRLTNMNGEVVPLSFALVLGWCSVMYFARGFQMLGPFTIMIQKMIFGDLMRFCWLMAVVILGFASAFHITFQTEDPNNLGEFSDYPTALFSTFELFLTIIDGPANYSVDLPFMYCITYAAFAIIATLLMLNLFIAMMGDTHWRVAQERDELWRAQVVATTVMLERKMPRFLWPRSGICGYEYGLGDRWFLRVENHHDQNPLRVLRYVEAFKCSDKEDGQEQLSEKRPSTVESGMLSRASVAFQTPSLSRTTSQSSNSHRGWEILRRNTLGHLNLGLDLGEGDGEEVYHF
notes: TRPV5, rabbit, full length, in a YepM vector; also called Transient receptor potential vanilloid 5; TRPV5_(CoA Open)
binding result: binds
